Legend:
[1] = substrate: CC(C)(COP(=O)(O)OP(=O)(O)OC[C@H]1O[C@@H](n2cnc3c(N)ncnc32)[C@H](O)[C@@H]1OP(=O)(O)O)[C@@H](O)C(=O)NCCC(=O)NCCSC(=O)CCCCCCCCCCCCCCCNc1ccc([N+](=O)[O-])c2nonc12; assay: auto-S-palmitoylation of HEK293 membranes, SDS-PAGE fluorescence normalised to tag Western blot; type: cell-based, Homo sapiens; conditions: pH 7.4, 37 °C, 2 min, labelled compound, covalent thioester at active-site Cys
[2] = substrate: CC(C)(COP(=O)(O)OP(=O)(O)OC[C@H]1O[C@@H](n2cnc3c(N)ncnc32)[C@H](O)[C@@H]1OP(=O)(O)O)[C@@H](O)C(=O)NCCC(=O)NCCSC(=O)CCCCCCCCCCCCCCCNc1ccc([N+](=O)[O-])c2nonc12; assay: as above; type: cell-based, Mus musculus; conditions: pH 7.4, 37 °C, labelled compound, covalent thioester at active-site Cys

B1: human zDHHC14 (Homo sapiens) (protein)
chain: MPPGGGGPMKDCEYSQISTHSSSPMESPHKKKKIAARRKWEVFPGRNKFFCNGRIMMARQTGVFYLTLVLILVTSGLFFAFDCPYLAVKITPAIPAVAGILFFFVMGTLLRTSFSDPGVLPRATPDEAADLERQIDIANGTSSGGYRPPPRTKEVIINGQTVKLKYCFTCKIFRPPRASHCSLCDNCVERFDHHCPWVGNCVGKRNYRFFYMFILSLSFLTVFIFAFVITHVILRSQQTGFLNALKDSPASVLEAVVCFFSVWSIVGLSGFHTYLISSNQTTNEDIKGSWSNKRGKENYNPYSYGNIFTNCCVALCGPISPSLIDRRGYIQPDTPQPAAPSNGITMYGATQSQSDMCDQDQCIQSTKFVLQAAATPLLQSEPSLTSDELHLPGKPGLGTPCASLTLGPPTPPASMPNLAEATLADVMPRKDEHMGHQFLTPDEAPSPPRLLAAGSPLAHSRTMHVLGLASQDSLHEDSVRGLVKLSSV
notes: full length, His6-Myc tag kept (pCEpuro-His6-Myc-1), HEK293 membrane fraction
Which Km [1] does the source give for B1 here?
Its Km is 1.78 ± 0.32 µM.

B2: mouse zDHHC14 (Mus musculus) (protein)
chain: MPPGGGGPMKDCEYSQISTHSSSPMESPHKKKKIAARRKWEVFPGRNKFFCNGRIMMARQTGVFYLTLILILVTSGLFFAFDCRYLAEKITPAIPVVGGILFFFVMGTLLRTSFSDPGVLPRATPDEAADLERQIDIANGTSSGGYRPPPRTKEVVINGQTVKLKYCFTCKIFRPPRASHCSLCDNCVEQFDHHCPWVGNCVGKRNYRFFYMFILSLSFLTVFIFAFVITHVIHRSQQKGFLDALKDSPASVLEAVICFFSVWSIIGLSGFHTYLISSNQTTNEDIKGSWSNKRGKENYNPYSYGNIFTNCCVALCGPISPSLIDRRGYVQPDTPQPAAPSNGITMYGATQSQSDMCDQDQCIQSTKFVLQAAATPLLQSEPSLTSEELHMPGKPGLGTPCASLTLGQPTPPSSMPNLATEATLSDIMPLKDEHGGHQFLTPDEAPSPPRMLGAGSPLAHSRTMHMLGLASQDSLHEDSVRGLVKLSSV
notes: full length, HA tag kept (pEF-Bos-HA), HEK293 membrane fraction
Which Km [2] does the source give for B2 here?
The Km was 0.98 ± 0.15 µM.

B3: mouse zDHHC4 (Mus musculus) (protein)
chain: MDFLVLFLFYLAFLLICVVLICIFTKSQRLKAVVLGGAQVCSRVIPQCLQRAVQTLLHQLFHTRHPTFIVLHLLLQGLVYAEYTCEVFGYCRELEFSLPYLLLPYVLLSVNLVFFTLTCAANPGTITKANESFLLQVYKFDDVMFPKNSRCPTCDLRKPARSKHCRLCDRCVHRFDHHCVWVNNCIGAWNTRYFLIYLLTLTASAATIATVTAAFLLRLVTVSDLYQETYLDDVGHFQAVDTVFLIQHLFLAFPRIVFLLGFVIVLSMLLAGYLCFALYLAATNQTTNEWYKGDWAWCQRWPLVAWSPSAEPRIHQNIHSHGFRSNLREIFLPATPSYKKKEK
notes: as for B2
How did the Km [2] turn out when B3 was run?
The Km was 0.69 ± 0.13 µM.

B4: mouse zDHHC3 (Mus musculus) (protein)
chain: MMLIPTHHFRDIERKPEYLQPEKCAPPPFPGPAGAMWFIRDGCGIACAIVTWFLVLYAEFVVLFVMLVPSRDYAYSIINGIVFNLLAFLALASHCRAMLTDPGAVPKGNATKEFIESLQLKPGQVVYKCPKCCSIKPDRAHHCSVCKRCIRKMDHHCPWVNNCVGENNQKYFVLFTMYIALISLHALIMVGFHFLHCFEEDWTKCSSFSPPTTVILLILLCFEALLFLIFTSVMFGTQVHSICTDETGIEQLKKEERRWAKKTKWMNMKAVFGHPFSLGWASPFATPDQGKADPYQYVV
notes: as for B2
For B4, which Km [2] is on record?
The Km was 6.83 ± 0.98 µM.

B5: mouse zDHHC2 (Mus musculus) (protein)
chain: MAPSGSGGVRRRCRRVLYWIPVVFISLLLGWSYYAYAIQLCIVSMENIGEQVVCLMAYHLLFAMFVWSYWKTIFTLPMNPSKEFHLSYAEKELLEREPRGEAHQEVLRRAAKDLPIYTRTMSGAIRYCDRCQLIKPDRCHHCSVCDKCILKMDHHCPWVNNCVGFSNYKFFLLFLAYSLLYCLFIAATDLQYFIRFWTNGLPDTQAKFHIMFLFFAAAMFSVSLSSLFGYHCWLVSKNKSTLEAFRNPVFRHGTDKNGFSLGFSKNMRQVFGDEKKYWLLPVFSSQGDGCSFPTCLVNQDPEQPSTPAGLNSTVKNPENHQFPAKPLRESQSHLLKDSQTWTESSANPGKGKAGMSNPALTMENET
notes: as for B2
Which Km [2] does the source give for B5 here?
The Km was 2.86 ± 0.78 µM.

Source: paper PMC11870023, “A facile assay for zDHHC palmitoyl transferase activation elucidates effects of mutation and modification” (Journal of Lipid Research, 2025)
